Assay [1] concerns the target His tagged human Angiopoietin-2 (human) (UniProt O15123). Kind of assay: bio-layer interferometry, rhAng2-His. In general terms: BLI is a label-free optical method that tracks binding on a fibre tip over time.
Assay [2] addresses recombinant human Ang2 (human) (UniProt O15123). In words: blocking ELISA: Ang2 coated on the plate, binding of recombinant human Tie2 is blocked. A general note: ELISA stands for enzyme-linked immunosorbent assay.
In the next assay the target is human TGFβ1 (human) (UniProt P01137).
human TGFβ1 (human), sequence (P01137 279-390 limits assumed): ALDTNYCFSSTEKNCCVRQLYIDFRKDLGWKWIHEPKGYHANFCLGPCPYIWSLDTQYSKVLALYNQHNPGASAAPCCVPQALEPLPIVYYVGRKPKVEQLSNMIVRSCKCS

His tagged human Angiopoietin-2 (human), sequence (O15123 19-496 limits assumed): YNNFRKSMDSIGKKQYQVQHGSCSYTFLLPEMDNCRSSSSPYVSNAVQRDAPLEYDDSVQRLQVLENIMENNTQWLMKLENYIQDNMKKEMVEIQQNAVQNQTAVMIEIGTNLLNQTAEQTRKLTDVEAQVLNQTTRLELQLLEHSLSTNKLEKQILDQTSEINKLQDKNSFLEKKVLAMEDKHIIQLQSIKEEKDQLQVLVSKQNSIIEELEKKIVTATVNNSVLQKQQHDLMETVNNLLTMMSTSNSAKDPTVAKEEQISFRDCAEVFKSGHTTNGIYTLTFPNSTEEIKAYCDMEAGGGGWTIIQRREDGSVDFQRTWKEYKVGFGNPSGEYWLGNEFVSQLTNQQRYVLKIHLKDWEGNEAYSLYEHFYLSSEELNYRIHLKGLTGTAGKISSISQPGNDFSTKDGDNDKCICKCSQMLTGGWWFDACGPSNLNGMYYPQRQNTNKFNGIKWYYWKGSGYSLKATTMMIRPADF
recombinant human Ang2 (human), sequence (O15123 19-496 limits assumed): as above

What is called Kd is a measure of binding affinity in units of concentration. Low readings indicate higher affinity, high ones lower affinity. For orientation: koff means a measure of how fast the partners let go of each other. The low end stands for a long-lived complex, the high end for a short-lived complex. One may read the kon as the second-order rate constant of association. A higher kon goes with fast association. One may read the IC50 as the concentration needed to halve the response being measured. trebananib (Fc fusion): in assay [1], the Kd was determined as 1.23 nM, the koff came to 0.000146 s⁻¹ and the kon turned out to be 119000 M⁻¹ s⁻¹. For the same substance, the IC50 in assay [2] is 0.5 nM.
The substance “TGFβ1 RII-Fc (from UniProt P37173 24-159) (Fc fusion)” registered an IC50; luciferase signal of TGFβ/SMAD SBE Reporter-HEK293 cells stimulated with human TGFβ1 with human TGFβ1 (human) of 2.02 nM.
On to bevacizumab-trebananib, for which the IC50 in assay [2] turned out to be 0.57 nM.

For the origin of these results see patent US20200002439A1.
